In patent US20120308575A1 (SHANGHAI BIOMABS PHARMACEUTICALS, published 2012):

What was measured:
[1] = molecular target: T1, recombinant human TNF-α (Product 210-TA-050, R&D) (human, UniProt P01375 77-233); test: flow cytometry competition: FITC-TNF-α (100 ng/ml) on U937 cells, antibody titrated; experiment 3
T1 construct: Bought protein; Amine-coupled to the chip in SPR, biotin-labelled in the P75 ELISA, FITC-labelled in the U937 assay; also called rhTNF-α; Recombinant TNFα (R&D)
Description: (§1) U937 cells (ATCC CRL1593) were cultured in RPMI-1640 medium (GIBCO) containing 10% fetal bovine serum (JRH). […] The cells at logarithmic growth phase were counted and then centrifuged at 200 g for 5 min. Supernatant was removed and cell pellets were resuspended in PBS containing 1% fetal bovine serum. The cells were adjusted to a concentration 1×10⁶/ml, and then distributed into flow cytometry test tubes, with 100 μl/tube. […] The diluted samples and control samples were added into flow cytometry test tubes, with 100 μl/tube, and reacted at 4° C. for 1 hour in darkness; the cells were washed twice with PBS containing 1% fetal bovine serum, and centrifuged at 200 g for 5 min each time. Supernatant was removed and cell pellets were resuspended in 300 μl of PBS containing 1% fetal bovine serum. Flow cytometry was used to measure the fluorescence intensity of each tube. Sample concentration was plotted on the x-coordinate and […] was plotted on the y-coordinate.

[2] = molecular target: T1, recombinant human TNF-α (Product …); test: competition ELISA: biotin-TNF-α (10 ng/ml) on coated P75 receptor-Fc, antibody titrated; experiment 2
Description: (§2) 10 μg/ml of P75 receptor-Fc fusion protein (which was prepared according to the method described in Chinese Patent Application No. 01132074.5 entitled “Recombinant genes, fusion genes and products of the soluble fragment of Tumor Necrosis Factor Receptor” filed on Oct. 31, 2001) was used to coat ELIAS plates and reacted at 37° C. for 2 h; 3% BSA-PBS was used to block the plate wells and reacted overnight at 4° C. […] The diluted samples and control samples were added to washed ELIAS plates with 100 μl/well and reacted at 37° C. for 1 h; the ELIAS plates were washed; HRP-avidin (Zymed) was diluted at 1:1000 with PBS and added to the ELIAS plates with 100 μl/well and reacted at 37° C. for 1 h; the ELIAS plates were washed; equal volumes of A solution and B solution (Jingmei BioTech Co. Ltd.) of TMB substrate for HRP were mixed and added to the ELIAS plates with 100 μl/well and reacted at room temperature for 10 minutes in darkness; each well was added with 100 μl of 0.5M sulphuric acid to stop the reaction. Absorbance at […] was measured using microplate reader. The concentration of samples was used as x-coordinate and absorbance was used as y-coordinate.

[3] = molecular target: T1, recombinant human TNF-α (Product …); test: cell-based or functional assay
[4] = molecular target: T1, recombinant human TNF-α (Product …); test: flow cytometry competition: FITC-TNF-α (100 ng/ml) on U937 cells, antibody titrated; average of 3
Description: as §1

[5] = molecular target: T1, recombinant human TNF-α (Product …); test: competition ELISA: biotin-TNF-α (10 ng/ml) on coated P75 receptor-Fc, antibody titrated; experiment 3
Description: as §2

[6] = molecular target: T1, recombinant human TNF-α (Product …); test: SPR, Biacore T100, TNFα amine-coupled to CM5 chip, antibody in flow
Description: After each examination, they were washed with 5 μl of 50 mM hydrochloric acid aqueous solution at a flow rate of 3 μl/min so as to wash away the residual antibodies from the immobilized ligands. The binding curves were subjected to nonlinear regression analysis using BIAevalution software (T100 evalution version 2.0, Biacore).

[7] = molecular target: T1, recombinant human TNF-α (Product …); test: competition ELISA: biotin-TNF-α (10 ng/ml) on coated P75 receptor-Fc, antibody titrated; average of 3
Description: as §2

[8] = molecular target: T1, recombinant human TNF-α (Product …); test: competition ELISA: biotin-TNF-α (10 ng/ml) on coated P75 receptor-Fc, antibody titrated; experiment 1
Description: as §2

[9] = molecular target: T1, recombinant human TNF-α (Product …); test: flow cytometry competition: FITC-TNF-α (100 ng/ml) on U937 cells, antibody titrated; experiment 2
Description: as §1

[10] = molecular target: T1, recombinant human TNF-α (Product …); test: flow cytometry competition: FITC-TNF-α (100 ng/ml) on U937 cells, antibody titrated; experiment 1
Description: as §1

T1 sequence (P01375 77-233 limits assumed): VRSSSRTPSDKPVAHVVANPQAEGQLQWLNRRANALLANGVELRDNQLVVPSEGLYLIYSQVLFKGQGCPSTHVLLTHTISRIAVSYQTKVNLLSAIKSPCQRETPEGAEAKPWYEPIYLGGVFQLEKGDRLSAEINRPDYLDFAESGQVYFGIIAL

IC50 [1]: 0.97 µg/mL
IC50 [2]: 0.31 µg/mL
IC50 [4]: 0.96 µg/mL
IC50 [5]: 0.27 µg/mL
Kd [6]: 0.36 nM
koff [6]: 5.7e-05 s⁻¹
kon [6]: 158000 M⁻¹ s⁻¹
IC50 [7]: 0.28 µg/mL
IC50 [8]: 0.25 µg/mL
IC50 [9]: 1.03 µg/mL
IC50 [10]: 0.89 µg/mL
B1: fully human anti-TNF-α monoclonal antibody 4H16 (antibody, human IgG1, kappa, V domains shown)
VH: QVTLRESGPALVKPTQTLTLTCTFSGFSLSTSGMCVSWIRQPPGKALEWLALIDWDDDKYYSTSLKTRLTISKDTSKNQVVLTMTNMDPVDTATYYCARILVDIVATITNDAFDVWGQGTMVTVSS
VL: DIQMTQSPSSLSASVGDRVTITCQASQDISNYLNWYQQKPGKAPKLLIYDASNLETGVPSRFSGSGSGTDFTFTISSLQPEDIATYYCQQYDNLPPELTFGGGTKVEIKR
notes: The genes carried a signal peptide at the 5' end; also called fully human antibody 4H16
IC50 of resistance to TNF-α-mediated killing of L929 cells (MTS), average [3]: 0.0572 µg/mL
IC50 of resistance to TNF-α-mediated killing of L929 cells (MTS), experiment 1 [3]: 0.0592 µg/mL
IC50 of resistance to TNF-α-mediated killing of L929 cells (MTS), experiment 2 [3]: 0.0459 µg/mL
IC50 of resistance to TNF-α-mediated killing of L929 cells (MTS), experiment 3 [3]: 0.0664 µg/mL
